Publication PMC3992927 (Cancer discovery, 2014)
Changes are numbered by the printed parent chain.

Columns and labels:
[1] = target: T1, myc epitope-tagged RNF31 Q622L (human, UniProt Q96EP0-1 1-1072, Q622L); test: co-IP
T1 sequence (looked up): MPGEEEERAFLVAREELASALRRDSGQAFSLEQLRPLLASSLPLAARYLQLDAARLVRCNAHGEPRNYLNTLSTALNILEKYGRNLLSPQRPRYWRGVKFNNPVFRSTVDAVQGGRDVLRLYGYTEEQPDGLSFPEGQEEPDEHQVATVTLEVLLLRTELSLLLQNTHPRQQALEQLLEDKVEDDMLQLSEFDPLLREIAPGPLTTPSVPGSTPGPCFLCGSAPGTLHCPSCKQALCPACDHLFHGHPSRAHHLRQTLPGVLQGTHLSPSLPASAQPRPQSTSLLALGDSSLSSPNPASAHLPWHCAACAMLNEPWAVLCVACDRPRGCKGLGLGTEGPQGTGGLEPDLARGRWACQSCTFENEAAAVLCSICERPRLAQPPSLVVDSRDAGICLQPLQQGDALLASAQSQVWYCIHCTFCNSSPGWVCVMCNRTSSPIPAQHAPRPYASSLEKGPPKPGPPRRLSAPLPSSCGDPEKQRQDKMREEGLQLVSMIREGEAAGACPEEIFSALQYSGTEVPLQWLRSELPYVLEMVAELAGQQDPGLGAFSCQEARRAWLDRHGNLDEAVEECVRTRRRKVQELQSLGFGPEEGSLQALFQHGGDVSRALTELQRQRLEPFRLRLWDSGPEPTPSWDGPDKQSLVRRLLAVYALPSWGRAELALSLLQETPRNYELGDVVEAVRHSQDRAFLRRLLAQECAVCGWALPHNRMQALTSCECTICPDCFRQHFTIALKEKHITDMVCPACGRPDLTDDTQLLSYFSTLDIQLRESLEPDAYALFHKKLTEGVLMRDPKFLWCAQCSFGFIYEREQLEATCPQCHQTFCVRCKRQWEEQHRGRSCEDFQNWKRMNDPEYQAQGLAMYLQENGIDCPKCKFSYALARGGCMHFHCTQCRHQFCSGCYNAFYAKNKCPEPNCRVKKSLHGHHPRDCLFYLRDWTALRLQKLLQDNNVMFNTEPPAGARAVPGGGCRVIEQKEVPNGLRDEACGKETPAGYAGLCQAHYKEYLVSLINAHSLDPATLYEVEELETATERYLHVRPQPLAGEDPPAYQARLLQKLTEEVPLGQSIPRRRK

[2] = target: T2, myc epitope-tagged RNF31 Q584H (human, UniProt Q96EP0-1 1-1072, Q584H); test: co-IP
T2 sequence (looked up): T1 sequence (looked up) with Q584H, L622Q

B1: RBCK1 (natural protein, human (endogenous in HBL1), UniProt Q9BYM8-1 1-510, looked up)
chain: MDEKTKKAEEMALSLTRAVAGGDEQVAMKCAIWLAEQRVPLSVQLKPEVSPTQDIRLWVSVEDAQMHTVTIWLTVRPDMTVASLKDMVFLDYGFPPVLQQWVIGQRLARDQETLHSHGVRQNGDSAYLYLLSARNTSLNPQELQRERQLRMLEDLGFKDLTLQPRGPLEPGPPKPGVPQEPGRGQPDAVPEPPPVGWQCPGCTFINKPTRPGCEMCCRARPEAYQVPASYQPDEEERARLAGEEEALRQYQQRKQQQQEGNYLQHVQLDQRSLVLNTEPAECPVCYSVLAPGEAVVLRECLHTFCRECLQGTIRNSQEAEVSCPFIDNTYSCSGKLLEREIKALLTPEDYQRFLDLGISIAENRSAFSYHCKTPDCKGWCFFEDDVNEFTCPVCFHVNCLLCKAIHEQMNCKEYQEDLALRAQNDVAARQTTEMLKVMLQQGEAMRCPQCQIVVQKKDGCDWIRCTVCHTEICWVTKGPRWGPGGPGDTSGGCRCRVNGIPCHPSCQNCH
- fold co-immunoprecipitation relative to wild type RNF31 [1]: 2.07 fold
- fold co-immunoprecipitation relative to wild type RNF31 [2]: 1.4 fold
